Measurements taken from US20110059095A1 (Regeneron, published 2011).
Where a chain is given by its changes, count along the chain named. Where no end group is shown, it is not given here. The star is where a group is joined. Biotin = O=C1N[C@H]2[C@H](CS[C@H]2CCCCC(=O)*)N1

T1: Peptide D (N-terminal domain of human PAR-2-mouse IgG2a) (Human)
T1 chain: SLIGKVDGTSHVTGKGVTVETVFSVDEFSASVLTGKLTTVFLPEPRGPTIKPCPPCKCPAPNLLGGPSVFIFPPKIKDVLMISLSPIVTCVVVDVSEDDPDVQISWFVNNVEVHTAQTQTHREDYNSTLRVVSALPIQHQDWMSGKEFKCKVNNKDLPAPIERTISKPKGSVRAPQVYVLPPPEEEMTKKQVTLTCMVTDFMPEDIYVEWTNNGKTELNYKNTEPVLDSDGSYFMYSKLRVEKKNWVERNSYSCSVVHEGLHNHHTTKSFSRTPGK

T2: Peptide A (human PAR-2), N-terminal biotinylated (Human, N-terminal biotin via G4S linker)
T2 construct: also called Peptide A N-Term
T2 peptide: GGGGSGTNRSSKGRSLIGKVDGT

T3: Peptide A (human PAR-2), unbiotinylated (Human)
T3 construct: also called Peptide A No Biotin
T3 peptide: GTNRSSKGRSLIGKVDGT

T4: Peptide C (human PAR-2), C-terminal biotinylated (Human)
T4 construct: also called Peptide C C-Term
T4 peptide: SLIGKVGGGGS-biotin

T5: Peptide C (human PAR-2), N-terminal biotinylated (Human)
T5 construct: also called Peptide C N-Term
T5 peptide: Biotin-GGGGSSLIGKV

T6: Peptide B (human PAR-2), unbiotinylated (Human)
T6 construct: also called Peptide B No Biotin
T6 peptide: SLIGKVDGTSHVTG

T7: Peptide G (rat PAR-2), C-terminal biotinylated (Rat (Rattus norvegicus), C-terminal biotin via G4S linker)
T7 construct: also called Peptide G C-Term
T7 peptide: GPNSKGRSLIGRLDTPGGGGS

T8: Peptide E (mouse PAR-2), N-terminal biotinylated (Mouse (Mus musculus), N-terminal biotin via G4S linker)
T8 construct: also called Peptide E N-Term
T8 peptide: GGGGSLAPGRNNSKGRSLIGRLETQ

T9: Peptide G (rat PAR-2), N-terminal biotinylated (Rat (Rattus norvegicus), N-terminal biotin via G4S linker)
T9 construct: also called Peptide G N-Term
T9 peptide: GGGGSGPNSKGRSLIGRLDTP

T10: Peptide G (rat PAR-2), unbiotinylated (Rat (Rattus norvegicus))
T10 construct: also called Peptide G No Biotin
T10 peptide: GPNSKGRSLIGRLDTP

T11: Peptide E (mouse PAR-2), unbiotinylated (Mouse (Mus musculus))
T11 construct: also called Peptide E No Biotin
T11 peptide: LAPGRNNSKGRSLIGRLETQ

B1: H4H591N (antibody, human IgG4, V domains shown)
VH: EVQLLESGGGLVQPGGSLRLSCATSGFTFSRYTMTWVRQAPGKGLFWVSGIGGSGGRAYYADSVKGRFTLSRDNSKNTLYLQMNSLRAEDTAVYYCAKEGDSGYDLDYWGRGTLVTVSS
VL: DIQMTQYPSSLSASVGDRVTITCRARQGISNYLAWLQQKPGKAPKSLIYAASSLQRGVPSKFSGSGSGTDFTLTISSLQPEDSATYYCQQYKISPLTFGGGTKVEIK
notes: also called H2M591N variable regions
B2: H4H618N (antibody, human IgG4, V domains shown)
VH: EVQLLESGGGLVQPGGSLRLSCAASGFTFRSYTMTWVRQAPGKGLDWVSGITDSGAGTYYGDSVKGRFTISRDNSKNTLYLQMNSLRAEDTAVYYCVKEGDSGYDLDYWGQGTLVTVSS
VL: B1 VL with Y7S, R26S, N31T, A51T, R56S, G66R, S83F, I93S
notes: also called H2M618N variable regions
B3: H2M610N (antibody, V domains shown)
VH: EVQLVESGGNLVQPGRSLRLSCAASGFTFDDYAMHWVRQAPGKGLEWVSGISWNSGSRGYADSVKGRFTISRDNAKNSLYLQMNSLRTEDTAFYYCTKEDEAFDYWGQGTLVTVSS
VL: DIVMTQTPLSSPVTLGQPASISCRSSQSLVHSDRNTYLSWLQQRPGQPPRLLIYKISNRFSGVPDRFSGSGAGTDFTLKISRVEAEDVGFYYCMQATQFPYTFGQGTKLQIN
notes: chimeric: human variable, mouse constant domains
B4: H4H573P (antibody, human IgG4, V domains shown)
VH: EVQLVESGGGLVQPGRSLRLSCAASGFTFDDYAMHWVRQGPGKGLEWVSGISWNGGSAGYADSVKGRFTISRDNAKNSLYLQLNSLRAEDTALYYCAKEDYAFDIWGQGTMVTVSS
VL: not shown
notes: also called H1H573P variable regions
B5: H4H578P (antibody, human IgG4, V domains shown)
VH: QVQLVESGGGVVQPGMSLRLSCAASGFTFRRYGMHWVRQAPGKGLEWVAVIWYDGSNKYYVDSVKGRFTISRDNSKNTLYLQMNSLRAEDTAVYYCASEITVGDWFDPWGQGTLVTVSS
VL: AIQMTQSPSSLSASVGDRVTITCRASQGIRNDLGWYQQKPGKAPKLLIYAASSLHSGVPSRFSGSGSGTDFTLTISSLQPEDFATYYCLQDFNYPLTFGGGTKVEIK
notes: also called H1H578P variable regions
B6: H4H580P (antibody, human IgG4, V domains shown)
VH: QVQLVESGGGVVQPGRSLRLSCVASGFTFSRYGMHWVRQAPGKGLEWVVVISYDGINKYYADSVKGRFTISRDNSKNTVYLQMNSLRAEDTAVYHCAKGDFWSGYFDYWGQGTLVTVSS
VL: DIVMTQTPLSSPVTLGQPASISCRSSQSLVHSDGNTYLSWLHQRPGQPPRLLIYKISNRFSGVPDRFSGSGAGTDFTLQISRVEAEDVGIYYCMQATQFPTFGGGTKVEIK
notes: also called H1H580P variable regions

Key:
[1] = molecular target: T12, Peptide F (monkey PAR-2), N-terminal biotinylated (Monkey (Macaca mulatta), N-terminal biotin via G4S linker); assay: SPR, antibody captured
T12 construct: also called Peptide F N-Term
Experimental: (§1) Equilibrium dissociation constants (KD values) for antigen binding to selected purified PAR-2 antibodies were determined by surface kinetics using a real-time surface plasmon resonance biosensor assay. Antibody was captured on either a rabbit anti-mouse IgG polyclonal antibody (GE Healthcare, Piscataway, N.J.) surface or a goat anti-human IgG polyclonal antibody (Jackson Immuno Research Lab, West Grove, Pa.) surface created through direct amine chemical coupling to a BIACORE™ CM5 sensor chip to form a captured antibody surface. […] Antigen-antibody binding and dissociation were monitored in real time at room temperature. Kinetic analysis was performed to calculate KD and half-life of antigen/antibody complex dissociation (Table 10). For those antibodies where no T_{1/2} value is shown, steady state analysis was used to calculate the KD value. NB: no binding observed under current experimental conditions. ND: not determined.

full length human PAR-2 [2] = molecular target: T13, full length human PAR-2 (human, UniProt P55085 26-397); assay: cell-based or functional assay
[3] = molecular target: T1, Peptide D (N-terminal domain of human …); assay: peptide ELISA
full length human PAR-2 [4] = molecular target: T13, full length human PAR-2; assay: cell-based or functional assay; remark: listed apart in the source
[5] = molecular target: T14, Peptide A (human PAR-2), C-terminal biotinylated (Human, C-terminal biotin via G4S linker); assay: peptide ELISA titration
T14 construct: also called Peptide A C-Term
Experimental: (§2) Anti-PAR-2 antibodies were tested for their ability to bind to the PAR-2 peptides. Various PAR-2 Peptides (Table 3) were coated onto 96-well plates at a concentration of 2 μg/ml and incubated overnight followed by blocking in a suitable blocking agent for one hour. […] Purified anti-PAR-2 antibodies were added to the plate coated with PAR-2 peptides to a final concentration ranging from 0.2 to 2.0 μg/ml and incubated for one hour at room temperature. Detection of bound antibodies was determined with Horse-Radish Peroxidase (HRP) conjugated anti-mouse or human IgG (Jackson Immuno Research Lab, West Grove, Pa.) and developed by standard colorimetric response using tetramethylbenzidine (TMB) substrate. Absorbance was read at OD₄₅₀ for 0.1 second.
(§3) In another experiment, selected anti-PAR-2 antibodies cloned onto human IgG4 were tested for binding to unbiotinylated and biotinylated forms of PAR-2 peptides (Peptides A, E, F and G; as described above). […] Absorbance values at 450 nm were analyzed using a sigmoidal dose-response model in GraphPad Prism (GraphPad Software, Inc., La Jolla, Calif.) and EC₅₀ values were reported (Table 9). EC₅₀ values are defined as the antibody concentration required to achieve 50% maximal binding to PAR-2 peptide.

[6] = molecular target: T2, Peptide A (human PAR-2), N-terminal …; assay: peptide ELISA titration
Experimental: as §2, §3

[7] = molecular target: T3, Peptide A (human PAR-2), unbiotinylated; assay: peptide ELISA titration
Experimental: as §2, §3

[8] = molecular target: T12, Peptide F (monkey PAR-2), N-terminal …; assay: peptide ELISA titration
Experimental: as §2, §3

[9] = molecular target: T14, Peptide A (human PAR-2), C-terminal …; assay: peptide ELISA
Experimental: as §2

[10] = molecular target: T4, Peptide C (human PAR-2), C-terminal …; assay: peptide ELISA
Experimental: as §2

[11] = molecular target: T5, Peptide C (human PAR-2), N-terminal …; assay: peptide ELISA
Experimental: as §2

[12] = molecular target: T2, Peptide A (human PAR-2), N-terminal …; assay: peptide ELISA
Experimental: as §2

[13] = molecular target: T3, Peptide A (human PAR-2), unbiotinylated; assay: peptide ELISA
Experimental: as §2

[14] = molecular target: T6, Peptide B (human PAR-2), unbiotinylated; assay: SPR, antibody captured; SPR at room temperature, monomeric peptide 15.6-250 nM injected over captured antibody
Experimental: as §1

[15] = molecular target: T3, Peptide A (human PAR-2), unbiotinylated; assay: SPR, antibody captured, steady state
Experimental: as §1

[16] = molecular target: T7, Peptide G (rat PAR-2), C-terminal …; assay: peptide ELISA titration
Experimental: as §2, §3

[17] = molecular target: T8, Peptide E (mouse PAR-2), N-terminal …; assay: peptide ELISA titration
Experimental: as §2, §3

[18] = molecular target: T9, Peptide G (rat PAR-2), N-terminal …; assay: peptide ELISA titration
Experimental: as §2, §3

[19] = molecular target: T10, Peptide G (rat PAR-2), unbiotinylated; assay: peptide ELISA titration
Experimental: as §2, §3

[20] = molecular target: T11, Peptide E (mouse PAR-2), unbiotinylated; assay: peptide ELISA titration
Experimental: as §2, §3

[21] = molecular target: T3, Peptide A (human PAR-2), unbiotinylated; assay: SPR, antibody captured
Experimental: as §1

full length human PAR-2 [22] = molecular target: T13, full length human PAR-2; assay: MSD cell binding
Experimental: HEK293 cells were transfected with an NF-κB-luciferase-IRES-eGFP reporter plasmid. […] A clonal cell line, named D9, having low background levels of luciferase activity and high levels of eGFP when induced with IL-1β was made by a series of successive sorts of cell populations using flow cytometry. The 293/D9 cell line was then separately transfected with human PAR-2 or mouse PAR-2 to create the stable cell lines 293/D9/h PAR-2rec and 293/D9/m PAR-2rec, respectively.
Cells were plated on MSD high-bind 96 well plates at a density of 4×10⁴ cells/well in PBS and incubated for one hour at room temperature. Cells were then blocked in PBS with 2% BSA and incubated at room temperature for one hour. Anti-PAR-2 antibodies (ranging from 100 nM to 0.098 nM) were serially diluted two-fold in PBS with 0.5% BSA and incubated with the cells for one hour at room temperature followed by washing in PBS with 0.5% BSA. Sulfo-tagged anti-human IgG antibody (MSD) at a concentration of 0.1 μg/ml was then added to the cell/antibody mixture and incubated at room temperature for an additional hour. After another wash, a 1× non-surfactant containing read buffer was added and electro-chemiluminescent signal was read on the MSD Sector Imager. Signal of antibody binding to 293/D9 cells was subtracted from signal to 293/D9/hPAR-2rec or 293/D9/mPAR-2rec cells. Subtracted data were analyzed using a sigmoidal dose-response model in GraphPad Prism and EC₅₀ and Bₘₐₓ values were reported (Table 18). EC₅₀ values are defined as the antibody concentration required to achieve 50% maximal binding (Bₘₐₓ) to cells.

T12 sequence (peptide, as listed by the source): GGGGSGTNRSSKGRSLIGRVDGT
T13 sequence (P55085 26-397 G138A limits assumed): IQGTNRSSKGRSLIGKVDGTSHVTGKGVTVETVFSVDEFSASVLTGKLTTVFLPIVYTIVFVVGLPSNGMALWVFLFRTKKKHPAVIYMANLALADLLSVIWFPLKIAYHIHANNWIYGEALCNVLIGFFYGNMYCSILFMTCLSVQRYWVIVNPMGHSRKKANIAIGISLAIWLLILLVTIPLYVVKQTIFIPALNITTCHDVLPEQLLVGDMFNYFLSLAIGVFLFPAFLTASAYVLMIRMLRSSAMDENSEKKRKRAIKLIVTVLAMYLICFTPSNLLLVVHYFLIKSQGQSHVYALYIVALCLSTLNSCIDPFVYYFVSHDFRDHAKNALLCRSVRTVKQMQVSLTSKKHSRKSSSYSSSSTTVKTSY

Binder	Kd [1] [nM]	T1/2 [1] [s]	IC50, NF-kB-luciferase, 10 nM Human Trypsin 1 (full length human PAR-2 [2]) [nM]	IC50, NF-kB-luciferase, 200 nM Factor Xa (full length human PAR-2 [2]) [nM]	IC50, NF-kB-luciferase, 750 nM Lung Tryptase (full length human PAR-2 [2]) [nM]	binding result [3]	IC50, NF-kB-luciferase, 20 nM Trypsin (full length human PAR-2 [4]) [nM]	EC50 [5] [nM]	EC50 [6] [nM]	EC50 [7] [nM]	EC50 [8] [nM]	Kd [15] [nM]	EC50 [16] [nM]	EC50 [17] [nM]	EC50 [18] [nM]	EC50 [19] [nM]	EC50 [20] [nM]	Kd [21] [nM]	T1/2 [21] [s]	also measured
B1	8.54	1260	105	74.6	62.9	binds	204	0.016	0.022	0.01	0.011	–	–	–	–	–	–	–	–	–
B2	13.8	300	92.2	47.2	8.5	binds	50.2	0.016	0.021	0.009	0.011	–	–	–	–	–	–	–	–	–
B3	–	–	–	–	–	–	–	–	–	–	–	71.3	–	–	–	–	–	–	–	OD450 [9]: 1 to 4 od; OD450 [10]: 0 to 0.09 od; OD450 [11]: 0 to 0.09 od; OD450 [12]: 1 to 4 od; OD450 [13]: 1 to 4 od; Kd [14]: 360 nM; T1/2 [14]: 48 s
B4	–	–	–	–	–	–	–	0.022	0.093	0.093	0.018	749	10.1	0.016	0.017	0.014	0.355	–	–	–
B5	–	–	–	–	–	–	–	0.04	0.062	0.034	0.036	–	–	0.09	0.081	0.046	2.78	245	10.2	–
B6	–	–	–	–	–	–	3.5	0.202	0.16	0.09	0.148	–	0.1	0.932	0.142	0.139	2.53	103	52.8	Bmax (full length human PAR-2 [22]): 30200 MSD Unit; EC50 (full length human PAR-2 [22]): 8.69 nM
